Peptide text beside a SMILES is read from it.
Tests used:
OF-1 mice = assay: Toxicity/procoagulant activity after intravenous injection; format: in vivo; settings: intravenous administration; dose levels as low as
Method: N-D-Ala-D-Leu-D-Ala-D-Leu-DNR was injected in the lateral tail vein of OF-1 mice at different dose levels in order to determine the minimal dose that induces acute toxicity and kills the animals in less than an hour following the injection. Animals were injected with this dose level and sacrificed befor death resulting from the injection of the conjugate occurs. Organs and tissues were collected, fixed and prepared for histopathology.

[1] = format: in vitro ADME, human
Method: The stability of this prodrug in whole human blood was determined, and its activation into the DNR-D-tetrapeptide (or any other positively charged derivative) was checked after incubation in the presence of human cancer cells conditioned media. Breast (MCF-7, MDA-MB-231), colon (LS-174-T), prostate (LNCaP) and lung (COR-L23, NCl-H69) cancer cell lines were used. Metabolites were analyzed by reverse phase-high pressure liquid chromatography (RP-HPLC), and fluorescence detection was used to identify and quantify the DNR derivatives generated over time. […] This particular prodrug is suitable for the in vivo validation of the concept.

tumor-bearing mice = assay: Tissue distribution studies in tumor-bearing mice; format: in vivo; settings: i.v., plasma and tissues, RP-HPLC
Method: Mice bearing the same tumor types used for efficacy studies were used. They were injected i.v. with the prodrug, and anesthetized at selected time points. Plasma and tissues (tumor, liver, kidney, spleen, heart, lung and skeletal muscle) were recovered, snap frozen in liquid nitrogen and stored at −80° C. The prodrug and its metabolites were then extracted and quantified by RP-HPLC with fluorescence detection.

enzyme X = settings: cited from earlier work
[2] = Test of polycationic polymers as procoagulant; settings: commercially available polymer
Method: An alternative to aggregation inducers to form the positively charged ‘particles’ responsible for coagulation is to use polymers such as poly-Lys. […] POIY-D-Lys of different size derivatized with D-amino acids, dipeptides, tripeptides or tetrapeptides on their terminal and side chain free amino groups were prepared (FIG. 5). Their toxicity and procoagulant activities were compared, and interesting candidates were used for the preparation of prodrugs (FIG. 5). N-succinyl-[…]-Ala-L-Leu-L-Ala-L-Leu or PEG-Ala-Leu-Ala-Leu prodrugs were prepared and compared in terms of efficacy and toxicity to the prodrugs based on aggregation inducers as described above. Alternatively, tests were performed using poly-D-Arg.

Q: Which “dose level inducing disseminated intravascular blood clotting” value (OF-1 mice) does the source give for COc1cccc2c1C(=O)c1c(O)c3c(c(O)c1C2=O)C[C@@](O)(C(C)=O)C[C@@H]3O[C@H]1C[C@H](NC(=O)[C@@H](CC(C)C)NC(=O)[C@@H](C)NC(=O)[C@@H](CC(C)C)NC(=O)[C@@H](C)N)[C@H](O)[C@H](C)O1 [N-D-Ala-D-Leu-D-Ala-D-Leu-daunorubicin, N-D-Ala-D-Leu-D-Ala-D-Leu-DNR] (HELM PEPTIDE1{[dA].[dL].[dA].[dL].[COc1cccc2c1C(=O)c1c(O)c3c(c(O)c1C2=O)C[C@@](O)(C(C)=O)C[C@@H]3O[C@H]1C[C@H](N[*:1])[C@H](O)[C@H](C)O1]}$$$$V2.0) here?
A: 34.5 µmol/kg

Q: For COc1cccc2c1C(=O)c1c(O)c3c(c(O)c1C2=O)C[C@@](O)(C(=O)CO)C[C@@H]3O[C@H]1C[C@H](NC(=O)[C@@H](CC(C)C)NC(=O)[C@@H](C)NC(=O)[C@@H](CC(C)C)NC(=O)[C@@H](C)N)[C@H](O)[C@H](C)O1 [N-D-Ala-D-Leu-D-Ala-D-Leu-doxorubicin] (HELM PEPTIDE1{[dA].[dL].[dA].[dL].[COc1cccc2c1C(=O)c1c(O)c3c(c(O)c1C2=O)C[C@@](O)(C(=O)CO)C[C@@H]3O[C@H]1C[C@H](N[*:1])[C@H](O)[C@H](C)O1]}$$$$V2.0; N-terminus and C-terminus assumed), which “dose level inducing disseminated intravascular blood clotting” value (OF-1 mice) is on record?
A: 34.5 µmol/kg

Q: Which results are given for “N-mPEG350-[…]-Ala-L-Leu-L-Ala-L-Leu-D-Ala-D-Leu-D-Ala-D-Leu-DNR”?
A: metabolite formed upon incubation in cancer cells conditioned media [1]: yielded the positively-charged N-L-Leu-D-Ala-D-Leu-D-Ala-D-Leu-DNR derivative; stability in whole human blood [1]: relatively stable; tissue distribution: site of metabolite generation (tumor-bearing mice): generation of a positively-charged procoagulant metabolite specifically within the tumor

Q: Which “substrate quality for enzyme X” value (enzyme X) does the source give for N-succinyl-[…]-Ala-L-Leu-L-Ala-L-Leu here?
A: optimal substrate

Q: With Poly-D-Lys as the compound, how does the “test as procoagulant polymer” value [2] read?
A: positively tested

— US20040097586A1, “Anti-tumor compounds” (priority 2001, published 2004)
